Experimental data as given in the supplement of paper PMC10065799, “High-throughput profiling of sequence recognition by tyrosine kinases and SH2 domains using bacterial peptide display” (eLife, 2023).

Experiments:
AncSZ = experiment: phosphorylation enrichment, bacterial display (enrichment ratio); higher = better substrate or ligand; peptides without Tyr show the background
EPHB1 = EPHB1 (UniProt P54762); experiment: as above
EPHB2 = EPHB2 (UniProt P29323); experiment: as above
FGFR1 = FGFR1 (UniProt P11362); experiment: as above
FGFR3 = FGFR3 (UniProt P22607); experiment: as above
Fer (mouse) = experiment: as above
Fes = Fes (UniProt P07332); experiment: as above
Fyn = Fyn (UniProt P06241); experiment: as above
Hck = Hck (UniProt P08631); experiment: as above
Jak2 = Jak2 (UniProt O60674); experiment: as above
MERTK = MERTK (UniProt Q12866); experiment: as above
c-Abl (mouse) = experiment: as above
c-Src = experiment: as above
Grb2 SH2 = Grb2 SH2 (UniProt P62993); experiment: SH2 binding enrichment of the phosphorylated peptide, bacterial display (enrichment ratio); higher = better substrate or ligand; peptides without Tyr show the background
SHP2-C SH2 = experiment: as above
c-Src SH2 = experiment: as above
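Wherever SH2 binding enrichment of the phosphorylated peptide, bacterial display is given: peptide library displayed on the E. coli surface as eCPX fusions, selected cells deep-sequenced, score is each peptide's frequency after selection divided by its frequency in the input.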
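Wherever phosphorylation enrichment, bacterial display is given: 11-residue human phosphosite peptides and single-mutation variants displayed on the E. coli surface, counted by deep sequencing, each peptide's frequency after selection divided by its frequency in the unselected input library; frequency after pTyr selection over input frequency; kinase dosed for 20-30% of maximal phosphorylation in three min.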

Sequence of Grb2 SH2 (P62993 whole entry, looked up): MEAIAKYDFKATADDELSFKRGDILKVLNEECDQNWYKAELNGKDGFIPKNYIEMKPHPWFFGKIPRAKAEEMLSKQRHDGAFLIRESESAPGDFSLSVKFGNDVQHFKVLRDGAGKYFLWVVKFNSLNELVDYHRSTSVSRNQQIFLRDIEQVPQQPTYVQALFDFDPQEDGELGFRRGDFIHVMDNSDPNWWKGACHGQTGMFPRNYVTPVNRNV
Sequence of Jak2 (O60674 whole entry, looked up): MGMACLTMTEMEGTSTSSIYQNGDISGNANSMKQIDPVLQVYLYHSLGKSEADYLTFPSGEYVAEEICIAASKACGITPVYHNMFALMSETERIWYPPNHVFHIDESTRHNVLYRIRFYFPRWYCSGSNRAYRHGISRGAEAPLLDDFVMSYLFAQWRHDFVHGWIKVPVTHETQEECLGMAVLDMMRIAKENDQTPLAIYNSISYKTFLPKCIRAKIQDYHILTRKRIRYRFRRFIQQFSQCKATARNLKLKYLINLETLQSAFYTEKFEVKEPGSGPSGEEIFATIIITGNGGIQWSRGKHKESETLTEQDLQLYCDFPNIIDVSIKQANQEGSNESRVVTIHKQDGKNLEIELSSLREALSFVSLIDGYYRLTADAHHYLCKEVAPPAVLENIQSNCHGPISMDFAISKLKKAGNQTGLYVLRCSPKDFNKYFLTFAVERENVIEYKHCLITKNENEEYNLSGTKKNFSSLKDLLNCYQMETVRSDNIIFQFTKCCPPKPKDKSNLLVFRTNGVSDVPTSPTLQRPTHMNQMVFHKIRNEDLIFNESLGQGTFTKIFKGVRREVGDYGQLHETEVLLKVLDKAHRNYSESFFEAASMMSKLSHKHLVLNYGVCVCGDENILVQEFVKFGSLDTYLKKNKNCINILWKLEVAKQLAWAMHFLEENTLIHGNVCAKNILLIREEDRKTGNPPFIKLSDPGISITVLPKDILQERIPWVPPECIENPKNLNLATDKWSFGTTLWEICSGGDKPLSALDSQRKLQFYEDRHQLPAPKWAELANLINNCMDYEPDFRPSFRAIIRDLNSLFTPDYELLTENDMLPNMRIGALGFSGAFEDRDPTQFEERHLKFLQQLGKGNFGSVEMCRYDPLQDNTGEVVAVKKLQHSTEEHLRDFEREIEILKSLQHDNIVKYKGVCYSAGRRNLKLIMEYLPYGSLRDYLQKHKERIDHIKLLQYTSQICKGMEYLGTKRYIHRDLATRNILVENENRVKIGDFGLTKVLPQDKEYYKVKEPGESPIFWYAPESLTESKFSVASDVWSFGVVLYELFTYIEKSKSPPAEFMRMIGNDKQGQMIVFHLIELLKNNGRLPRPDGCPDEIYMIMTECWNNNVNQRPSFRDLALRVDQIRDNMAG
Sequence of EPHB1 (P54762 whole entry, looked up): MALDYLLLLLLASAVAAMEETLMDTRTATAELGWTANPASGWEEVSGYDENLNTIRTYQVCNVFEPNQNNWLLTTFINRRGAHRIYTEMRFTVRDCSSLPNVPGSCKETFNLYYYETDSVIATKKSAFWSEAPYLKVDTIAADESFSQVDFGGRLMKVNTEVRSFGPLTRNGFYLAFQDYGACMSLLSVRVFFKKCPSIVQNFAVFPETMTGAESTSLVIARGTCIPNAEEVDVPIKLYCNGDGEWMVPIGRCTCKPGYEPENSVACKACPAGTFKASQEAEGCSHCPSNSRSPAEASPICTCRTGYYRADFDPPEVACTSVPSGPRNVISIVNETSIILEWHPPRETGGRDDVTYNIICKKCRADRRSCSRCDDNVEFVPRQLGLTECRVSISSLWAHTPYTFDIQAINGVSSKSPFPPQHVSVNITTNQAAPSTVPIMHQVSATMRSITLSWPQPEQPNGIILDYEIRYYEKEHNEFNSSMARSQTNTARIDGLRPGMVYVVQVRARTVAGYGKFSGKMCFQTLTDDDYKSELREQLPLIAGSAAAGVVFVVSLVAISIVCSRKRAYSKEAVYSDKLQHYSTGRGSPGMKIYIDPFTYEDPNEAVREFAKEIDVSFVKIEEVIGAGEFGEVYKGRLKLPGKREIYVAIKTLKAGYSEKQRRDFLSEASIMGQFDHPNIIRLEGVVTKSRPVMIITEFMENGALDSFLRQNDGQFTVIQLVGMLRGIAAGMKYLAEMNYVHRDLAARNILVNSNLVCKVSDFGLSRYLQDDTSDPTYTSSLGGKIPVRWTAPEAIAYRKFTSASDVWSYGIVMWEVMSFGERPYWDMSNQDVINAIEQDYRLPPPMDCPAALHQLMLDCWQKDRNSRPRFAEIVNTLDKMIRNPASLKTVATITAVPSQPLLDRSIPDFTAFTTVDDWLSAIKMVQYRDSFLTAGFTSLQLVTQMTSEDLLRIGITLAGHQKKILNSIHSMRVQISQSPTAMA
Sequence of EPHB2 (P29323 whole entry, looked up): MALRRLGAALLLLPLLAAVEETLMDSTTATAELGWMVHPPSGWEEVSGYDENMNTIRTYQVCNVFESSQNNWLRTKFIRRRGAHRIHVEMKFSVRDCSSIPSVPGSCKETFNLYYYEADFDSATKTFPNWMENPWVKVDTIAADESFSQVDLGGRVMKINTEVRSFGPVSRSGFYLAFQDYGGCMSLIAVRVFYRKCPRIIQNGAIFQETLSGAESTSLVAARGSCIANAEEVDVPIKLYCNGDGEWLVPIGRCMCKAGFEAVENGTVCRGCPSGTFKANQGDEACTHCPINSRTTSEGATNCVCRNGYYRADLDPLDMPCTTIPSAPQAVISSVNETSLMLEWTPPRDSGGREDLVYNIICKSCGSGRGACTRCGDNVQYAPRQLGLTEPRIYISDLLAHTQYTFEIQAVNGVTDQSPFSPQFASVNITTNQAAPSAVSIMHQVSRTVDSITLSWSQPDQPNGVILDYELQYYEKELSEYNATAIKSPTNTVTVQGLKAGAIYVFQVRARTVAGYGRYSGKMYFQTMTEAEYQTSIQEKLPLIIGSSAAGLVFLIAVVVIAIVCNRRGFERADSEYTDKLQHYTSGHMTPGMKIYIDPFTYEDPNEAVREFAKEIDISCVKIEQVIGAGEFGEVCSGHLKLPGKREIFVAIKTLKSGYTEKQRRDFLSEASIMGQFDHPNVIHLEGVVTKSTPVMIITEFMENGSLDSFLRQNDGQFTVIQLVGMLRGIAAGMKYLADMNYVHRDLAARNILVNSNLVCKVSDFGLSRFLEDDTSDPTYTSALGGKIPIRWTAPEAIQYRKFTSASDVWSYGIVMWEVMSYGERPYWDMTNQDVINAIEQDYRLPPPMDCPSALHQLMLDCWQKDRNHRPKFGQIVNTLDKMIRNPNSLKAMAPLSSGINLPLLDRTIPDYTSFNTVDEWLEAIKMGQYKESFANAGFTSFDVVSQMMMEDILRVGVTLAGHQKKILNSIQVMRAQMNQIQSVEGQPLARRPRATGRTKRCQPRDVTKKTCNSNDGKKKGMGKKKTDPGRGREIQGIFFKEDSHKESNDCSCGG
Sequence of Fyn (P06241 whole entry, looked up): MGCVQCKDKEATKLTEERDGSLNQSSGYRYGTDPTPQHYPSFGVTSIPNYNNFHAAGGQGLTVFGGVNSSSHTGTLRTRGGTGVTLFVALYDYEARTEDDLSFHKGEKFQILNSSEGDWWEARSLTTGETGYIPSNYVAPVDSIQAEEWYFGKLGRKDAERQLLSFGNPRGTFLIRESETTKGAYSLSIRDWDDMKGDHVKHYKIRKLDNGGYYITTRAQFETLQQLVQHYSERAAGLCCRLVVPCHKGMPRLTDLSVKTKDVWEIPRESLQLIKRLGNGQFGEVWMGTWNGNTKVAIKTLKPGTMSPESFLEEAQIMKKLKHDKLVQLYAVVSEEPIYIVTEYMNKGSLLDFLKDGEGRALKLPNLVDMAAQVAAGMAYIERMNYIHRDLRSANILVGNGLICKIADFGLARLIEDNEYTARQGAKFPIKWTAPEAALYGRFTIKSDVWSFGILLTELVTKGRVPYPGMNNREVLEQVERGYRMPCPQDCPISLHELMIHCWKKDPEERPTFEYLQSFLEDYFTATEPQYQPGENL
Sequence of Hck (P08631 whole entry, looked up): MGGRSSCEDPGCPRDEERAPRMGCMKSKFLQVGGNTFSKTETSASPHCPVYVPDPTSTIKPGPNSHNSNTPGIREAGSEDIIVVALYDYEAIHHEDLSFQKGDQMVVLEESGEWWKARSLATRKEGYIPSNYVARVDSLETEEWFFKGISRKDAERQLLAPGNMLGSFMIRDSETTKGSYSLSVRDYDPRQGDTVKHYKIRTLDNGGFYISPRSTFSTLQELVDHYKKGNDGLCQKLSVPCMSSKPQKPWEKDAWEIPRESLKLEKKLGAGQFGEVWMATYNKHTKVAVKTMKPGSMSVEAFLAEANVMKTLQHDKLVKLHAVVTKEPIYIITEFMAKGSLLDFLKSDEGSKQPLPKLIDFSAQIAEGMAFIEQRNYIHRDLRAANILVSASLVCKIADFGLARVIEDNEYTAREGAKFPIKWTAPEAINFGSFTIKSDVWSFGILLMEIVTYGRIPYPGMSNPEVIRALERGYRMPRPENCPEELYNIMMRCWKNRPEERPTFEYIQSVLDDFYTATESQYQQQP

Sequence | phosphorylation enrichment (AncSZ) | phosphorylation enrichment (EPHB1) | phosphorylation enrichment (EPHB2) | phosphorylation enrichment (FGFR1) | phosphorylation enrichment (FGFR3) | phosphorylation enrichment (Fer (mouse)) | phosphorylation enrichment (Fes) | phosphorylation enrichment (Fyn) | phosphorylation enrichment (Hck) | phosphorylation enrichment (Jak2) | phosphorylation enrichment (MERTK) | phosphorylation enrichment (c-Abl (mouse)) | phosphorylation enrichment (c-Src) | SH2 binding enrichment (Grb2 SH2) | SH2 binding enrichment (SHP2-C SH2) | SH2 binding enrichment (c-Src SH2)
SHEELYKWFTS [DYNC1H1_Y3051] | 1.28 | 0.608 | 0.577 | 5.57 | 3.6 | 3.4 | 1.21 | 0.918 | 1.25 | 1.05 | 4.28 | 1.33 | 1.55 | 0.887 | 0.837 | 0.562
SHGQDYLAGNK [GSTA2_Y147_V149A] | 0.641 | 0.348 | 0.36 | 0.597 | 0.49 | 0.421 | 0.845 | 0.458 | 0.364 | 0.64 | 0.471 | 0.452 | 0.404 | 1.11 | 0.693 | 0.583
SHNKFYMLVAR [MFSD8_Y134_YF] | 1.15 | 0.673 | 0.607 | 0.532 | 0.875 | 0.607 | 1.15 | 0.452 | 0.475 | 1.1 | 0.479 | 0.705 | 0.36 | 1.4 | 1.72 | 1.04
SKDQICPMKLK [RANBP17_Y823_Y823C] | 0.825 | 0.385 | 0.565 | 0.595 | 0.643 | 0.614 | 0.781 | 0.599 | 0.573 | 0.746 | 0.553 | 0.632 | 0.505 | 1.08 | 0.586 | 0.744
SKEPYYVRCIK [MYO1D_Y586] | 1.06 | 0.566 | 0.511 | 0.58 | 0.669 | 0.501 | 0.966 | 0.417 | 0.405 | 1 | 0.403 | 0.705 | 0.451 | 0.748 | 0.674 | 0.498
SKNSKYNAEST [PSEN1_Y315] | 0.482 | 0.309 | 0.426 | 0.339 | 0.366 | 0.396 | 0.609 | 0.363 | 0.351 | 0.673 | 0.35 | 0.52 | 0.425 | 0.759 | 0.595 | 0.489
SKQGKYLNWDA [ATM_Y54] | 0.79 | 0.384 | 0.507 | 0.437 | 0.527 | 0.454 | 0.856 | 0.396 | 0.427 | 0.666 | 0.399 | 0.491 | 0.445 | 6.01 | 0.82 | 0.653
SLGSPYEQPPR [PDLIM4_Y137_G138E] | 0.909 | 0.487 | 0.493 | 0.46 | 0.565 | 0.474 | 0.757 | 0.495 | 0.619 | 0.673 | 0.581 | 0.747 | 0.547 | 0.887 | 1 | 1.05
SLQSEYVHFGG [CDC14A_Y591_YF] | 1.24 | 1.09 | 0.746 | 1.36 | 0.972 | 0.442 | 0.963 | 0.783 | 0.596 | 0.875 | 0.509 | 0.734 | 0.889 | 0.899 | 0.993 | 0.629
SLQSEYVHYGG [CDC14A_Y591] | 0.919 | 0.854 | 0.973 | 0.811 | 0.95 | 0.441 | 0.774 | 0.69 | 0.927 | 0.655 | 0.558 | 0.6 | 0.848 | 0.587 | 0.69 | 0.533
SMAKYYASGIA [ACADSB_Y373_E376G] | 0.497 | 0.408 | 0.7 | 0.437 | 0.469 | 0.444 | 0.622 | 0.331 | 0.463 | 0.665 | 0.381 | 0.599 | 0.394 | 0.771 | 0.791 | 0.578
SPDMLYQYLKQ [RPAP3_Y567] | 1.09 | 3.35 | 1.78 | 3.36 | 2.04 | 11.6 | 0.692 | 1.18 | 8.16 | 0.727 | 7.39 | 0.856 | 1.96 | 1.21 | 0.659 | 0.68
SQQTFCRVSNM [ABCD1_Y181_Y181C_YF] | 0.636 | 0.461 | 0.515 | 0.446 | 0.615 | 0.408 | 0.679 | 0.453 | 0.5 | 0.554 | 0.412 | 0.567 | 0.411 | 0.808 | 0.713 | 0.502
SRASYYRKGGC [ALK_Y1283_Y1278S] | 0.522 | 0.34 | 0.371 | 0.414 | 0.335 | 0.326 | 0.5 | 0.38 | 0.37 | 0.641 | 0.428 | 0.585 | 0.52 | 0.644 | 0.473 | 0.607
SRDDDYETIAM [NPY1R_Y347] | 1.75 | 1.31 | 1.03 | 0.599 | 0.753 | 1.11 | 1.28 | 0.612 | 0.737 | 1.16 | 0.5 | 0.977 | 0.562 | 0.979 | 0.789 | 0.8
SRDPFYEMLTA [CYTH1_Y382_A386T] | 1.25 | 4.93 | 2.82 | 7.02 | 4.25 | 11 | 1.07 | 2.38 | 5.45 | 0.975 | 8.32 | 0.71 | 3.17 | 0.958 | 0.747 | 2.25
SRIWVYNHFRW [BRCA2_Y2621_YF] | 1.15 | 0.597 | 0.612 | 0.435 | 0.78 | 0.413 | 1.29 | 0.423 | 0.477 | 1.13 | 0.44 | 0.853 | 0.479 | 1.15 | 1.37 | 1.12

Sequence | phosphorylation enrichment (AncSZ) | phosphorylation enrichment (EPHB1) | phosphorylation enrichment (EPHB2) | phosphorylation enrichment (FGFR1) | phosphorylation enrichment (FGFR3) | phosphorylation enrichment (Fer (mouse)) | phosphorylation enrichment (Fes) | phosphorylation enrichment (Fyn) | phosphorylation enrichment (Hck) | phosphorylation enrichment (Jak2) | phosphorylation enrichment (MERTK) | phosphorylation enrichment (c-Abl (mouse)) | phosphorylation enrichment (c-Src) | SH2 binding enrichment (Grb2 SH2) | SH2 binding enrichment (SHP2-C SH2) | SH2 binding enrichment (c-Src SH2)
SRVTQYERNFE [SNX1_Y463_D466N] | 0.763 | 0.421 | 0.387 | 0.453 | 0.499 | 0.438 | 0.813 | 0.45 | 0.435 | 0.662 | 0.379 | 0.634 | 0.377 | 0.845 | 0.593 | 0.569
SSEYHCVGGFY [CTSC_Y347_Y347C] | 2.32 | 3.8 | 4.66 | 7.73 | 5.2 | 0.64 | 1.45 | 1.76 | 1.72 | 1.37 | 0.775 | 7.61 | 1.82 | 0.557 | 0.764 | 0.398
SSNLFYRCLTA [CNGA3_Y169_W171C_YF] | 1.03 | 0.638 | 0.632 | 0.491 | 0.742 | 0.497 | 1.36 | 0.384 | 0.429 | 1.12 | 0.42 | 1.06 | 0.454 | 0.808 | 0.518 | 0.399
SSSAIYDNPNL [DCP1B_Y191] | 0.898 | 12.2 | 15.6 | 0.411 | 0.457 | 9.27 | 0.737 | 8.1 | 9.85 | 0.632 | 8.1 | 22.5 | 5.76 | 0.688 | 0.53 | 0.706
SSVKPYRVFCD [FGB_Y266_YF] | 0.701 | 0.432 | 0.394 | 0.453 | 0.552 | 0.34 | 0.74 | 0.419 | 0.432 | 0.678 | 0.392 | 0.7 | 0.481 | 1.11 | 1.08 | 0.758
SSWPDYVRPLP [HSPB1_Y54_G53D] | 4.98 | 1.57 | 0.599 | 2.49 | 1.6 | 0.54 | 0.93 | 0.442 | 0.511 | 7.67 | 0.437 | 0.808 | 0.475 | 0.974 | 0.71 | 0.489
SVEELYAIPPD [PEAK1_Y797] | 3.92 | 3.15 | 13.6 | 5.57 | 5.64 | 5.23 | 1.59 | 2.88 | 4.24 | 1.78 | 9.81 | 9.56 | 3.28 | 0.746 | 0.733 | 0.543
SVKVYYKKCWF [EPHA7_Y202_S207F] | 1.12 | 0.553 | 0.531 | 0.432 | 0.596 | 0.433 | 1.14 | 0.375 | 0.382 | 1.08 | 0.356 | 0.856 | 0.448 | 0.712 | 0.657 | 0.501
SVTCPYSPALN [TP53_Y126_T125P] | 0.961 | 0.572 | 0.573 | 0.505 | 0.679 | 0.656 | 1.29 | 0.481 | 0.616 | 1.17 | 0.437 | 1.21 | 2.15 | 0.939 | 0.7 | 0.556
SVTCTNSPALN [TP53_Y126_Y126N] | 0.907 | 0.586 | 0.483 | 0.491 | 0.699 | 0.588 | 1.24 | 0.495 | 0.447 | 1.08 | 0.487 | 0.762 | 0.504 | 0.659 | 0.65 | 0.385
SVTCTYSPALN [TP53_Y126] | 1.53 | 0.794 | 0.723 | 0.517 | 0.984 | 0.626 | 1.72 | 0.489 | 0.641 | 1.45 | 0.456 | 0.976 | 0.66 | 0.766 | 0.616 | 0.401
SVTCTYSPTLN [TP53_Y126_A129T] | 1.48 | 0.92 | 0.682 | 0.606 | 0.912 | 0.667 | 1.58 | 0.566 | 0.625 | 1.4 | 0.503 | 0.926 | 0.58 | 0.639 | 0.551 | 0.469
SVTCTYYPALN [TP53_Y126_S127Y] | 1.52 | 0.645 | 0.617 | 0.499 | 0.831 | 0.556 | 1.36 | 0.48 | 0.592 | 1.36 | 0.412 | 1.01 | 0.575 | 0.68 | 0.693 | 0.373
SVVVCYEPPEV [TP53_Y220_P219C] | 1.78 | 0.751 | 0.697 | 0.509 | 0.78 | 0.678 | 1.19 | 0.573 | 0.616 | 1.07 | 0.457 | 0.849 | 0.518 | 0.814 | 0.656 | 0.584
SVVVPYEPHEV [TP53_Y220_P223H] | 1.05 | 0.716 | 0.615 | 0.542 | 0.835 | 1.38 | 1.25 | 0.54 | 0.577 | 1.18 | 0.493 | 0.803 | 0.513 | 0.726 | 0.781 | 0.569
SVVVPYQPPEV [TP53_Y220_E221Q] | 0.728 | 0.645 | 0.51 | 0.494 | 0.596 | 0.467 | 0.918 | 0.399 | 0.445 | 0.784 | 0.383 | 1.51 | 0.44 | 0.969 | 0.696 | 0.535
